From patent US20220098305A1 (Hoffmann-La Roche, published 2022)

T1: human ICOS (human, UniProt Q9Y6W8 21-199)
T1 sequence: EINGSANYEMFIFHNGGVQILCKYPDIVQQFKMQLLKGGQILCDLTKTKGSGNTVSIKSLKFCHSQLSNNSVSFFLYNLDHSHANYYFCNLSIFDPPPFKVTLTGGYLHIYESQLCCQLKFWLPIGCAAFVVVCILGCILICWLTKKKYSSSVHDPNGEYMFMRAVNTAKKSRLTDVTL

B1: Molecule 14 (muIgG of 009) (antibody, V domains shown)
VH: EVRLDETGGGVVQPGRPMELSCVASGFTFSDYWMNWVRQSPEKGLEWVAQIRNKPYNYETYYSDSVKGRFTISRDDSKSRVYLQMNNLRAEDMGIYYCTWPRLRSSDWHFDVWGAGTTVTVSS
VL: AIQMTQSPSSLSASLGGEVTITCKASQDINKNIAWYQHKPGRGPRLLIWYTSTLQTGIPSRFSGSGSGRDYSFTISNLEPEDFATYYCLQFDNLYTFGSGTKLEIR
notes: Mouse IgG purified from hybridoma; also called ICOS (009); clone 009
B2: Molecule 18 (rbIgG of 1138) (antibody, V domains shown)
VH: QSLEESGGDLVKPGASLTLTCTASGFDLSSYYYMCWVRQAPGKGLEWIACIYADIYGGTTHYASWAKGRFTISKTSSTTVTLQMTSLTAADTATYFCAREDGSRYGGSGYYNLWGPGTLVTVSS
VL: ALVMTQTPSSVSAAVGGTVTINCQASQNIYSNLAWYQQKPGQPPKLLIYAASYLTSGVSSRFKGSGAGTQFTLTISGVECADAATYYCQQGHTTDNIDNAFGGGTEVVVKG
notes: Rabbit IgG format; also called ICOS (1138); clone 1138
B3: Molecule 40, bispecific 2+1 anti-ICOS (009)/anti-FAP (4B9) huIgG1 P329GLALA kih (bispecific antibody)
heavy 1: EVRLDETGGGVVQPGRPMELSCVASGFTFSDYWMNWVRQSPEKGLEWVAQIRNKPYNYETYYSDSVKGRFTISRDDSKSRVYLQMNNLRAEDMGIYYCTWPRLRSSDWHFDVWGAGTTVTVSSASTKGPSVFPLAPSSKSTSGGTAALGCLVKDYFPEPVTVSWNSGALTSGVHTFPAVLQSSGLYSLSSVVTVPSSSLGTQTYICNVNHKPSNTKVDKKVEPKSCDKTHTCPPCPAPEAAGGPSVFLFPPKPKDTLMISRTPEVTCVVVDVSHEDPEVKFNWYVDGVEVHNAKTKPREEQYNSTYRVVSVLTVLHQDWLNGKEYKCKVSNKALGAPIEKTISKAKGQPREPQVCTLPPSRDELTKNQVSLSCAVKGFYPSDIAVEWESNGQPENNYKTTPPVLDSDGSFFLVSKLTVDKSRWQQGNVFSCSVMHEALHNHYTQKSLSLSPGGGGGSGGGGSGGGGSGGGGSEIVLTQSPGTLSLSPGERATLSCRASQSVTSSYLAWYQQKPGQAPRLLINVGSRRATGIPDRFSGSGSGTDFTLTISRLEPEDFAVYYCQQGIMLPPTFGQGTKVEIK
heavy 2: not shown
light: AIQMTQSPSSLSASLGGEVTITCKASQDINKNIAWYQHKPGRGPRLLIWYTSTLQTGIPSRFSGSGSGRDYSFTISNLEPEDFATYYCLQFDNLYTFGSGTKLEIRRTVAAPSVFIFPPSDEQLKSGTASVVCLLNNFYPREAKVQWKVDNALQSGNSQESVTEQDSKDSTYSLSSTLTLSKADYEKHKVYACEVTHQGLSSPVTKSFNRGEC

Assays:
human ICOS [1] = biological target: T1, human ICOS; assay: cell-based or functional assay
[2] = biological target: T2, recombinant monomeric human ICOS Fc(kih) Avi tag (human, UniProt P0DOX5 223-449 = IgG part, biotin on the Avi tag in the ligand-blocking and the SPR competition assays); assay: SPR (Biacore T200, 25 C), antibody captured on anti-mouse IgG, ICOS Fc(kih) 7.5-600 nM as analyte, 1:1 Langmuir fit
T2 construct: also called recombinant human ICOS; biotinylated human ICOS Fc(kih)
Description: (§1) All SPR experiments were performed on a Biacore T200 at 25° C. with HBS-EP as running buffer (0.01 M HEPES pH 7.4, 0.15 M NaCl, 3 mM EDTA, 0.005% Surfactant P20, Biacore, Freiburg/Germany).
(§2) Setup 2: Anti-mouse IgG antibody (GE Healthcare, Chicago/US) was directly coupled on a CM5 chip at pH 5.0 using the standard amine coupling kit (Biacore, Freiburg/Germany). The immobilization level was approximately 5000 RU. […] The dissociation was monitored for 720 seconds. Bulk refractive index differences were corrected for by subtracting the response obtained on reference flow cell.

human ICOS [3] = biological target: T1, human ICOS; assay: flow cytometry, ICOS+ CHO cells, 120 nM anti-ICOS IgG, no ICOSL
Description: (§3) Briefly, cells were harvested, counted, checked for viability and re-suspended at 1 million cells per ml in FACS buffer (PBS with 0.1% BSA). […] Cells were washed again twice with cold PBS 0.1% BSA and then re-incubated and fixed for 20 min at 4° C. in the dark, using 75 μl of 1% PFA in FACS buffer per well. Fluorescence was analyzed by FACS using a FACS Fortessa (Software FACS Diva. Data was analyzed using GraphPadPrism 7.

human ICOS [4] = biological target: T1, human ICOS; assay: flow cytometry, MFI(ICOSL+anti-ICOS)/MFI(anti-ICOS only)*100 at 120 nM; competitor ICOSL
Description: as §3

human ICOS [5] = biological target: T1, human ICOS; assay: flow cytometry, ICOS+ CHO cells, 120 nM anti-ICOS IgG pre-bound, then ICOSL (competitor) 120 nM
Description: as §3

human ICOS [6] = biological target: T1, human ICOS; assay: flow cytometry, SR cells
Description: (§4) Briefly, suspension cells were harvested, counted, checked for viability and re-suspended at 1 million cells per ml in FACS buffer (PBS with 0.1% BSA). […] The staining was fixed for 20 min at 4° C. in the dark, using 75 μl of 1% PFA in FACS buffer per well.
(§5) In addition, binding of the above molecules to human SR cells (ATCC® CRL-2262) was performed as described above apart from the following modifications: SR cells were re-suspended at 2 million cells per ml in FACS buffer (BD).
(§6) Fluorescence was analyzed by FACS using a FACS Fortessa (Software FACS Diva). Binding curves and EC50 values were obtained using GraphPadPrism 7.

human ICOS [7] = biological target: T1, human ICOS; assay: flow cytometry on CHO cells stably expressing human ICOS, PE-labelled secondary antibody, median fluorescence intensity (MFI)
Description: as §4, §6

[8] = biological target: T2, recombinant monomeric human ICOS …; assay: SPR competition on human ICOS Fc(kih); second injection 100 nM; competitor (row): Molecule 18
Description: (§7) Immobilization levels up to 600 resonance units (RU) were used. […] Bulk refractive index differences were corrected for by subtracting the response obtained on reference flow cell.
(§8) The SPR experiments were performed on a Biacore T200 at 25° C. with HBS-EP as running buffer (0.01 M HEPES pH 7.4, 0.15 M NaCl, 3 mM EDTA, 0.005% Surfactant P20, Biacore, Freiburg/Germany).

[9] = biological target: T2, recombinant monomeric human ICOS …; assay: SPR competition on human ICOS Fc(kih); second injection 100 nM; competitor (row): Molecule 8
Description: as §7, §8

human ICOS [10] = biological target: T1, human ICOS; assay: flow cytometry, CHO cells expressing human ICOS
Description: as §4, §6

[11] = biological target: T2, recombinant monomeric human ICOS …; assay: SPR competition on human ICOS Fc(kih); second injection 100 nM; competitor (row): Molecule 20
Description: as §7, §8

human ICOS [12] = biological target: T1, human ICOS; assay: flow cytometry on SR cells expressing human ICOS, PE-labelled secondary antibody, MFI
Description: as §4, §5, §6

[13] = biological target: T2, recombinant monomeric human ICOS …; assay: SPR (Biacore T200, 25 C), antibody captured on anti-rabbit Fc, ICOS Fc(kih) 7.5-600 nM as analyte, 1:1 Langmuir fit
Description: as §1
as §2, with “1: Anti-rabbit Fc” for “2: Anti-mouse IgG”, “(Jackson ImmunoResearch, Cambridgeshire/UK)” for “(GE Healthcare, Chicago/US)”, “4.5” for “5.0”, “9000” for “5000”

[14] = biological target: T2, recombinant monomeric human ICOS …; assay: SPR competition on human ICOS Fc(kih); second injection 100 nM; competitor (row): Molecule 14
Description: as §7, §8

human ICOS [15] = biological target: T1, human ICOS; assay: flow cytometry, SR cells; remark: listed apart in the source
human FAP [16] = biological target: T3, human FAP (human, UniProt Q12884 1-760); assay: flow cytometry on NIH/3T3-huFAP clone 19 cells, geometric MFI
T3 construct: also called hu FAP

human FAP [17] = biological target: T3, human FAP; assay: flow cytometry, NIH/3T3-huFAP clone 19 cells
human ICOS [18] = biological target: T1, human ICOS; assay: flow cytometry on SR cells expressing human ICOS, geometric MFI

Binder	EC50 of activation of Jurkat-NFAT reporter cell line (luminescence) (human ICOS [1])	MFI (A488), IgG only (human ICOS [3])	Relative Binding (%) (human ICOS [4])	MFI (A488), IgG + ICOSL (human ICOS [5])	EC50 (human ICOS [6])	EC50 (read off the curve) (human ICOS [7])	binding of the second injection (0 = no binding; 1 = binding) [9]	EC50 (human ICOS [10])	binding of the second injection (0 = no binding; 1 = binding) [11]	EC50 (read off the curve) (human ICOS [12])	also measured
B1	0.08 nM	7190 MFI	97.3%	7000 MFI	1.4 pM	~3 nM	0	2.97 pM	0	~1 nM	Kd [2]: 2 nM; koff [2]: 0.00014 s⁻¹; kon [2]: 61000 M⁻¹ s⁻¹; t1/2 [2]: 81.6 min; binding of the second injection (0 = no binding; 1 = binding) [8]: 1
B2	0.09 nM	6320 MFI	98.2%	6210 MFI	2.16 pM	~2 nM	1	1.92 pM	1	~2 nM	Kd [13]: 0.7 nM; koff [13]: 0.00026 s⁻¹; kon [13]: 400000 M⁻¹ s⁻¹; t1/2 [13]: 43.7 min; binding of the second injection (0 = no binding; 1 = binding) [14]: 1
B3	–	–	–	–	–	–	–	–	–	–	EC50 (human ICOS [15]): 1.74 pM; EC50 (read off the curve) (human FAP [16]): ~4 nM; EC50 (human FAP [17]): 3.85 pM; EC50 (read off the curve) (human ICOS [18]): ~2 nM
